In data set [1] the target is arylsulfatase from Enterococcus faecium (EfAS), wild type (Enterococcus faecium). Kind of data set: crystal structure; vapor diffusion at 17°C, 0.1 M sodium cacodylate pH 6.4, 8% PEG3350, 0.2 M MnCl2; space group P42(1)2, two molecules in the asymmetric unit, tetramer through symmetry-related operations.
The target in the next data set is T1, EfAS (Enterococcus faecium, UniProt I3U6E8).
T1 construct: gene HMPREF0351_12962; synthetic codon-optimised gene in pSMT3, E. coli BL21(DE3); His6-SUMO tag removed by Ulp1; homotetramer, 323 kDa by SEC; residues 9-488 modelled; C61 partly oxidised to formylglycine
T1 sequence (I3U6E8 1-491 limits assumed): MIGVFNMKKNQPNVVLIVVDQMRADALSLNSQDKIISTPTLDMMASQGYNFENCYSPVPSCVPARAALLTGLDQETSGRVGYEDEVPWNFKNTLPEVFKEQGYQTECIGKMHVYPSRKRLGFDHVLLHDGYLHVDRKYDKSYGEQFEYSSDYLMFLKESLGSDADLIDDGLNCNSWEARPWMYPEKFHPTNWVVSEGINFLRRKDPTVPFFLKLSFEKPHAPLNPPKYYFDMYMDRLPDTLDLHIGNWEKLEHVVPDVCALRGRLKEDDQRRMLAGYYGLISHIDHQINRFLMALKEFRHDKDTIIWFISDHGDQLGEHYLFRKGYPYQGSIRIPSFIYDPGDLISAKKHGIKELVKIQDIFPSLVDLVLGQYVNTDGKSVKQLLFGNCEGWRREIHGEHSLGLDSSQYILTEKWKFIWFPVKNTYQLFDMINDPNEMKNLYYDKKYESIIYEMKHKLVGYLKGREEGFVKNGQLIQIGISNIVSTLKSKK
Kind of data set: p-nitrophenol colorimetric assay at […] nm, Lineweaver-Burk. The class given is biochemical. As to conditions: read-out: Kinetic parameters / Km (×10^-3 M); 50 mM sodium acetate pH 4.5, 1 mM MnCl2, 37 °C.

Substrate in data set [2]: O=[N+]([O-])c1ccc(OS(=O)(=O)O)cc1
Briefly: purified protein. In kind it is biochemical, Enterococcus faecium. Particulars: 50 mM sodium acetate pH 4.5, 1 mM MnCl2, 37 °C.

Substrate in data set [3]: O=[N+]([O-])c1ccc(OP(=O)(O)O)cc1
Briefly: purified protein. The class given is biochemical, Enterococcus faecium. As to conditions: 50 mM sodium acetate pH 4.5, 1 mM MnCl2, 37 °C.

What is called stoichiometry N is a count of units in the complex or per binding partner. Usually kcat stands for the maximal rate divided by the concentration of active sites. A word on the kcat/Km: it is the second-order rate constant that governs catalysis at low substrate concentration.

As to “arylsulfatase from Enterococcus faecium (EfAS), wild type (enzyme)”, in data set [1], the stoichiometry N worked out at 4.
Consider `O=[N+]([O-])c1ccc(OP(=O)(O)c2ccccc2)cc1` [p-nitrophenyl phenylphosphonate], for which the Km at EfAS turned out to be 1410 µM.

B1: EfAS (Enterococcus faecium DO) (protein)
chain: MIGVFNMKKNQPNVVLIVVDQMRADALSLNSQDKIISTPTLDMMASQGYNFENCYSPVPSCVPARAALLTGLDQETSGRVGYEDEVPWNFKNTLPEVFKEQGYQTECIGKMHVYPSRKRLGFDHVLLHDGYLHVDRKYDKSYGEQFEYSSDYLMFLKESLGSDADLIDDGLNCNSWEARPWMYPEKFHPTNWVVSEGINFLRRKDPTVPFFLKLSFEKPHAPLNPPKYYFDMYMDRLPDTLDLHIGNWEKLEHVVPDVCALRGRLKEDDQRRMLAGYYGLISHIDHQINRFLMALKEFRHDKDTIIWFISDHGDQLGEHYLFRKGYPYQGSIRIPSFIYDPGDLISAKKHGIKELVKIQDIFPSLVDLVLGQYVNTDGKSVKQLLFGNCEGWRREIHGEHSLGLDSSQYILTEKWKFIWFPVKNTYQLFDMINDPNEMKNLYYDKKYESIIYEMKHKLVGYLKGREEGFVKNGQLIQIGISNIVSTLKSKK
notes: synthetic codon-optimised gene in pSMT3, E. coli BL21(DE3); His6-SUMO tag removed by Ulp1; homotetramer, 323 kDa by SEC; residues 9-488 modelled; C61 partly oxidised to formylglycine
For B1, in the data set “purified protein [2]”, the Km turned out to be 677 µM, the kcat turned out to be 0.0831 s⁻¹ and the catalytic efficiency (kcat/Km) came to 123 M⁻¹ s⁻¹. Also, in “purified protein [3]”, the Km worked out at 1285 µM, the kcat turned out to be 0.0318 s⁻¹ and the specificity constant (kcat/Km) was found to be 24.8 M⁻¹ s⁻¹.

The values are drawn from publication PMC12421950, “Structural insights into manganese-dependent arylsulfatase from Enterococcus faecium and its catalytic promiscuity” (mBio, 2025).
